Test results reported in patent US20190119345A1 (published 2019).

Biological target: T1, murine NKG2D on NK cells / splenocytes (mouse, UniProt O54709 1-232)
T1 construct: whole, on cells; also called NKG2D receptor
T1 sequence: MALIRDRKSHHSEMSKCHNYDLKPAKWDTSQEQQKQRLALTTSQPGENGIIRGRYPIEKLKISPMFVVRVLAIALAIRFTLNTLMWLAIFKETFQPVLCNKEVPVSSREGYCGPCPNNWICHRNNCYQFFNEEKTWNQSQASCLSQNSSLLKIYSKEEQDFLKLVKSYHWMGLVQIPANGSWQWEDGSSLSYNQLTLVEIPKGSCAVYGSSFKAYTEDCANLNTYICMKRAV
Assay: flow cytometry, fluorescently labeled construct on bulk splenocytes at 37° C.

B1: OMCP-mutIL2 (R38A, F42K, C125S IL2-OMCP construct) (other)
chain: HKLAFNFNLEINGSDTHSTVDVYLDDSQIITFDGKDIRPTIPFMIGDEIFLPFYKNVFSEFFSLFRRVPTSTPYEDLTYFYECDYTDNKSTFDQFYLYNGEEYTVKTQEATNKNMWLTTSEFRLKKWFDGEDCIMHLRSLVRKMEDSKRNTGGTGSSGSSDYKDDDDKHHHHHHHHGSSGSSAPTSSSTKKTQLQLEHLLLDLQMILNGINNYKNPKLTAMLTKKFYMPKKATELKHLQCLEEELKPLEEVLNLAQSKNFHLRPRDLISNINVIVLELKGSETTFMCEYADETATIVEFLNRWITFSQSIISTLT
notes: also called OMCP-mutant IL2; OMCP-IL2 construct
B1: binds.
